Consider one substance from article PMC7091491.

Test [1] has as its target G12-insertion ClpX^ΔN single-chain pseudohexamer (E. coli) (UniProt P0A6H1).
The target of test [2] is linker-deletion ClpX^ΔN single-chain pseudohexamer (E. coli) (UniProt P0A6H1).
Test [3] deals with wild-type single-chain ClpX^ΔN pseudohexamer (E. coli) (UniProt P0A6H1).

With Arc-st11-ssrA, the figures for the KM of Arc-st11-ssrA degradation (0.1 μM ClpX, 0.3 μM ClpP) in test [1] and in test [3] were 4.1 µM and 2.5 µM, respectively. Moreover, the KM of Arc-st11-ssrA degradation (0.1 μM ClpX, 0.3 μM ClpP); approximate in test [2] is 20 µM.
